This is an account of results in patent publication EP4803539A2.

Assay [1] deals with antigen of the 'Antigen binding ELISA' (not given). In words: Antigen binding ELISA of stressed sample; F18; 3 freeze-thaw cycles.
The target is the same in assay [2]. In words: Antigen binding ELISA of stability sample; F15 without methionine; initial (same value as Table 37).
For assay [3] the target is unchanged. In words: Antigen binding ELISA of stressed sample; F15; 3 freeze-thaw cycles.
Assay [4] has the same target. The experiment in a line: Antigen binding ELISA of stressed sample; F18; 25 °C dark 7 days.
Assay [5] shares this target. In words: Antigen binding ELISA of stressed sample; F18; 25 °C 1000 lx 7 days.
For assay [6] the target is unchanged. In words: Antigen binding ELISA of stability sample; F18; 25 °C 2 months.
For assay [7] the target is unchanged. In words: Antigen binding ELISA of stability sample; F18 with 10 mM methionine; initial.
The target is the same in assay [8]. The experiment in a line: Antigen binding ELISA of stressed sample; F15; 25 °C dark 7 days.
The target is the same in assay [9]. The experiment in a line: Antigen binding ELISA of stability sample; F15 without methionine; initial.
For assay [10] the target is unchanged. In words: Antigen binding ELISA of stability sample; F15; 25 °C 2 months.
Assay [11] has the same target. The experiment in a line: Antigen binding ELISA of stability sample; F0; initial (repeated from Table 37).
For assay [12] the target is unchanged. In words: Antigen binding ELISA of stressed sample; F18; initial (repeated from Table 41A).
Assay [13] has the same target. In words: Antigen binding ELISA of stability sample; F0; 5 °C 2 months (same value as Table 37).
Assay [14] shares this target. In words: Antigen binding ELISA of stability sample; F18; 25 °C 1 month.
Assay [15] has the same target. In words: Antigen binding ELISA of stability sample; F18 with methionine; initial (repeated from Table 41A).
Assay [16] has the same target. The experiment in a line: Antigen binding ELISA of stability sample; F15 without methionine; 5 °C 2 months (same value as Table 37).
For assay [17] the target is unchanged. The experiment in a line: Antigen binding ELISA of stressed sample; F15; 25 °C 1000 lx 7 days.
The target is the same in assay [18]. The experiment in a line: Antigen binding ELISA of stability sample; F0; 25 °C 1 month.
Assay [19] has the same target. In words: Antigen binding ELISA of stability sample; F0; 25 °C 2 months.
Assay [20] has the same target. The experiment in a line: Antigen binding ELISA of stressed sample; F15; initial (repeated from Table 37).
For assay [21] the target is unchanged. The experiment in a line: Antigen binding ELISA of stability sample; F18 with methionine; 5 °C 2 months.
Assay [22] shares this target. In words: Antigen binding ELISA of stability sample; F15; 25 °C 1 month.

For the substance BAN2401 (antibody), the ELISA (Antigen binding ELISA), report result in assay [1] was determined as 106%; in assay [2], 102%; in assay [3], 108%; in assay [4] it was 105%; in assay [5], 109%; in assay [6], 97.8%. Moreover, the ELISA (Antigen binding ELISA), report result in assay [7] worked out at 108%; in assay [8], 107%; in [9], 102%; in assay [10] it was 96.9%; in assay [11] it was 101%; in [12], 108%. Also, the ELISA (Antigen binding ELISA), report result in assay [13] amounted to 103%; in assay [14], 97%; in assay [15], 108%; in [16] it was 123%; in assay [17], 101%; in [18], 103%. The ELISA (Antigen binding ELISA), report result was 91.8% in [19], 102% in assay [20], 118% in assay [21] and 104% in [22].
